In paper PMC8653789 one finds fold reduction of binding relative to wild type data, which are given here for 3 substances.

What all share (assay): AlphaScreen or HTRF
Background: Alpha assays give light when donor and acceptor beads are brought close together.

For experiment [1], the target named is H3K4me2/H4K12ac nucleosome (UniProt P04908).
Experiment [2] has as its target H3K4me1/H4K12ac nucleosome (UniProt P04908).
Experiment [3] addresses H3K4me3/H4K12ac nucleosome (UniProt P04908).

With “PHIP Tudor–BD1–BD2 R1310C (from UniProt Q8WWQ0 940-1434) (domain or fragment)”, the fold reduction of binding relative to wild type in experiment [1] and in experiment [2] was above 4 fold throughout.
Regarding “PHIP Tudor–BD1–BD2 R1402S (from UniProt Q8WWQ0 940-1434) (domain or fragment)”, the fold reduction of binding relative to wild type in experiment [1], in experiment [2] and in experiment [3] was above 10 fold each time.
Take “PHIP Tudor–BD1–BD2 W1156L (from UniProt Q8WWQ0 940-1434) (domain or fragment)”: the fold reduction of binding relative to wild type in experiment [1] and in experiment [2] was above 3 fold throughout.
